Laboratory results: US20130323786A1 (Biogen, published 2013)
Residue numbers refer to the chain shown, from its start. In names and notes the source's numbering stands. Blank lines part the entries; values can stand above or below the binder they belong to.

Key:
LINGO-Fc [1] = target: T1, LINGO-Fc (human, UniProt Q96FE5 40-538, limits assumed); assay: direct ELISA on LINGO-Fc; half-maximal concentration relative to Li33;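 further: direct binding ELISA on plates coated with LINGO-Fc, concentration giving half of saturating binding, expressed as a ratio to the same value for the comparator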
T1 construct: not shown: Fc part
T1 sequence: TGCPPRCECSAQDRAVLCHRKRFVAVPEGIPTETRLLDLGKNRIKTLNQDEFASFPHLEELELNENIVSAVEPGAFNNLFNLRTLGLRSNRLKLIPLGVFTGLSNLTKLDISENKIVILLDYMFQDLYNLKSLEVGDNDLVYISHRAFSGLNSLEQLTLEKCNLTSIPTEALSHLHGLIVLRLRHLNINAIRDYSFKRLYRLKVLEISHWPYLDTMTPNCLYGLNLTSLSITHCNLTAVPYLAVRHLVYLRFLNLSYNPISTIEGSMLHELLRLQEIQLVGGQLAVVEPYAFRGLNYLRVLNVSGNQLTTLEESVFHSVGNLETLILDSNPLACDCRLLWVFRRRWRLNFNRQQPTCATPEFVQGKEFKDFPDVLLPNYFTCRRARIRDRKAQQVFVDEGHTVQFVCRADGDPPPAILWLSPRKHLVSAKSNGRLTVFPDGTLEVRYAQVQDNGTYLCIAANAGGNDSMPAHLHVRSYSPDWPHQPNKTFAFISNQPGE

LINGO-Fc [2] = target: T1, LINGO-Fc; assay: direct ELISA on LINGO-Fc; OD450 at saturation relative to Li33;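 further: binding to plate-coated LINGO-Fc read by OD450, with the value at maximal saturation divided by the corresponding Li33 value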
Procedure: A direct binding ELISA assay was performed using LINGO-Fc coated plates. The half maximal concentration that gave 50% saturation of binding was measured and is reported as a ratio of the same measurement for Li33. In addition, the OD450 for maximal saturation value was measured and is reported as a ratio of the same measurement for Li33.

ELISA Ratio (LINGO-Fc [1]): 1.6 ratio
Plateau Ratio (LINGO-Fc [2]): 0.91 ratio
B2: Li33 variant W94A (SEQ ID NO:165) (antibody, V domains shown)
VH: EVQLLESGGGLVQPGGSLRLSCAASGFTFSIYPMFWVRQAPGKGLEWVSWIGPSGGITKYADSVKGRFTISRDNSKNTLYLQMNSLRAEDTATYYCAREGHNDWYFDLWGRGTLVTVSS
VL: DIQMTQSPGTLSLSPGERATLSCRASQSVSSYLAWYQQKPGQAPRLLIYDASNRATGIPARFSGSGSGTEFTLTISSLQSEDFAVYYCQQYDKAPLTFGGGTKVEIKR
notes: unchanged chain from WT Li33

ELISA Ratio (LINGO-Fc [1]): 1.8 ratio
Plateau Ratio (LINGO-Fc [2]): 1 ratio
B4: Li33 variant W50L (SEQ ID NO:149) (antibody, V domains shown)
VH: B2 VH with W50L
VL: B2 VL with A94W
notes: unchanged chain from WT Li33

ELISA Ratio (LINGO-Fc [1]): 3.8 ratio
Plateau Ratio (LINGO-Fc [2]): 0.88 ratio
B6: Li33 variant W104M (SEQ ID NO:176) (antibody, V domains shown)
VH: B2 VH with W104M
VL: B2 VL with A94W
notes: unchanged chain from WT Li33

ELISA Ratio (LINGO-Fc [1]): 1.2 ratio
Plateau Ratio (LINGO-Fc [2]): 0.86 ratio
B7: Li33 variant W50F (SEQ ID NO:148) (antibody, V domains shown)
VH: B2 VH with W50F
VL: B2 VL with A94W
notes: unchanged chain from WT Li33

ELISA Ratio (LINGO-Fc [1]): 4 ratio
Plateau Ratio (LINGO-Fc [2]): 0.71 ratio
B10: Li33 variant W50D (SEQ ID NO:175) (antibody, V domains shown)
VH: B2 VH with W50D
VL: B2 VL with A94W
notes: unchanged chain from WT Li33

ELISA Ratio (LINGO-Fc [1]): 2.4 ratio
Plateau Ratio (LINGO-Fc [2]): 0.91 ratio
B11: Li33 variant W104Q (SEQ ID NO:158) (antibody, V domains shown)
VH: B2 VH with W104Q
VL: B2 VL with A94W
notes: unchanged chain from WT Li33

ELISA Ratio (LINGO-Fc [1]): 6.5 ratio
Plateau Ratio (LINGO-Fc [2]): 0.62 ratio
B12: Li33 variant W104I (SEQ ID NO:179) (antibody, V domains shown)
VH: B2 VH with W104I
VL: B2 VL with A94W
notes: unchanged chain from WT Li33

ELISA Ratio (LINGO-Fc [1]): 1.3 ratio
Plateau Ratio (LINGO-Fc [2]): 0.99 ratio
B13: Li33 variant W94S (SEQ ID NO:172) (antibody, V domains shown)
VH: B2 VH
VL: B2 VL with A94S
notes: unchanged chain from WT Li33

ELISA Ratio (LINGO-Fc [1]): 0.9 ratio
Plateau Ratio (LINGO-Fc [2]): 1.05 ratio
B16: Li33 variant W94Q (SEQ ID NO:170) (antibody, V domains shown)
VH: B2 VH
VL: B2 VL with A94Q
notes: unchanged chain from WT Li33

ELISA Ratio (LINGO-Fc [1]): 1.5 ratio
Plateau Ratio (LINGO-Fc [2]): 0.87 ratio
B17: Li33 variant W94D (SEQ ID NO:166) (antibody, V domains shown)
VH: B2 VH
VL: B2 VL with A94D
notes: unchanged chain from WT Li33

ELISA Ratio (LINGO-Fc [1]): 93.5 ratio
Plateau Ratio (LINGO-Fc [2]): 12.4 ratio
B18: Li33 variant W50I (SEQ ID NO:174) (antibody, V domains shown)
VH: B2 VH with W50I
VL: B2 VL with A94W
notes: unchanged chain from WT Li33

ELISA Ratio (LINGO-Fc [1]): 0.8 ratio
Plateau Ratio (LINGO-Fc [2]): 1.05 ratio
B20: Li33 variant W94N (SEQ ID NO:168) (antibody, V domains shown)
VH: B2 VH
VL: B2 VL with A94N
notes: unchanged chain from WT Li33

ELISA Ratio (LINGO-Fc [1]): 0.1 ratio
Plateau Ratio (LINGO-Fc [2]): 0.91 ratio
B23: Li33 variant W104H (SEQ ID NO:156) (antibody, V domains shown)
VH: B2 VH with W104H
VL: B2 VL with A94W
notes: unchanged chain from WT Li33

ELISA Ratio (LINGO-Fc [1]): 0.6 ratio
Plateau Ratio (LINGO-Fc [2]): 0.97 ratio
B24: Li33 variant W94L (SEQ ID NO:167) (antibody, V domains shown)
VH: B2 VH
VL: B2 VL with A94L
notes: unchanged chain from WT Li33

ELISA Ratio (LINGO-Fc [1]): 1.3 ratio
Plateau Ratio (LINGO-Fc [2]): 0.87 ratio
B27: Li33 variant W50H (SEQ ID NO:147) (antibody, V domains shown)
VH: B2 VH with W50H
VL: B2 VL with A94W
notes: unchanged chain from WT Li33

ELISA Ratio (LINGO-Fc [1]): 2 ratio
Plateau Ratio (LINGO-Fc [2]): 0.93 ratio
B28: Li33 variant W50M (SEQ ID NO:150) (antibody, V domains shown)
VH: B2 VH with W50M
VL: B2 VL with A94W
notes: unchanged chain from WT Li33

ELISA Ratio (LINGO-Fc [1]): 2.5 ratio
Plateau Ratio (LINGO-Fc [2]): 0.69 ratio
B32: Li33 variant W104L (SEQ ID NO:177) (antibody, V domains shown)
VH: B2 VH with W104L
VL: B2 VL with A94W
notes: unchanged chain from WT Li33

ELISA Ratio (LINGO-Fc [1]): 1.1 ratio
Plateau Ratio (LINGO-Fc [2]): 0.67 ratio
B35: Li33 variant W104Q (SEQ ID NO:187) (antibody, V domains shown)
VH: B2 VH with W104Q
VL: B2 VL with A94W
notes: unchanged chain from WT Li33

ELISA Ratio (LINGO-Fc [1]): 1.4 ratio
Plateau Ratio (LINGO-Fc [2]): 0.91 ratio
B37: Li33 variant W94V (SEQ ID NO:171) (antibody, V domains shown)
VH: B2 VH
VL: B2 VL with A94V
notes: unchanged chain from WT Li33

ELISA Ratio (LINGO-Fc [1]): 0.9 ratio
Plateau Ratio (LINGO-Fc [2]): 1.03 ratio
B38: Li33 variant W94G (SEQ ID NO:169) (antibody, V domains shown)
VH: B2 VH
VL: B2 VL with A94G
notes: unchanged chain from WT Li33

Further lines, the binder ahead of its results:

B1: WT Li33 (Table 11) (antibody, V domains shown)
VH: B2 VH
VL: B2 VL with A94W
ELISA Ratio (LINGO-Fc [1]): 1 ratio
Plateau Ratio (LINGO-Fc [2]): 0.91 ratio

B3: Li33 variant I57G (SEQ ID NO:159) (antibody, V domains shown)
VH: B2 VH with I57G
VL: B2 VL with A94W
notes: unchanged chain from WT Li33
ELISA Ratio (LINGO-Fc [1]): 2.3 ratio
Plateau Ratio (LINGO-Fc [2]): 0.91 ratio

B5: Li33 variant I57H (SEQ ID NO:162) (antibody, V domains shown)
VH: B2 VH with I57H
VL: B2 VL with A94W
notes: unchanged chain from WT Li33
ELISA Ratio (LINGO-Fc [1]): 3.2 ratio
Plateau Ratio (LINGO-Fc [2]): 1.07 ratio

B8: Li33 variant I57T (SEQ ID NO:186) (antibody, V domains shown)
VH: B2 VH with I57T
VL: B2 VL with A94W
notes: unchanged chain from WT Li33
ELISA Ratio (LINGO-Fc [1]): 1.1 ratio
Plateau Ratio (LINGO-Fc [2]): 1.01 ratio

B9: Li33 variant I57W (SEQ ID NO:181) (antibody, V domains shown)
VH: B2 VH with I57W
VL: B2 VL with A94W
notes: unchanged chain from WT Li33
ELISA Ratio (LINGO-Fc [1]): 0 ratio

B14: Li33 variant P53T (SEQ ID NO:153) (antibody, V domains shown)
VH: B2 VH with P53T
VL: B2 VL with A94W
notes: unchanged chain from WT Li33
ELISA Ratio (LINGO-Fc [1]): 2.1 ratio
Plateau Ratio (LINGO-Fc [2]): 0.85 ratio

B15: Li33 variant I57S (SEQ ID NO:183) (antibody, V domains shown)
VH: B2 VH with I57S
VL: B2 VL with A94W
notes: unchanged chain from WT Li33
ELISA Ratio (LINGO-Fc [1]): 0.6 ratio
Plateau Ratio (LINGO-Fc [2]): 0.96 ratio

B19: Li33 variant I57Y (SEQ ID NO:182) (antibody, V domains shown)
VH: B2 VH with I57Y
VL: B2 VL with A94W
notes: unchanged chain from WT Li33
ELISA Ratio (LINGO-Fc [1]): 0 ratio

B21: Li33 variant I57N (SEQ ID NO:161) (antibody, V domains shown)
VH: B2 VH with I57N
VL: B2 VL with A94W
notes: unchanged chain from WT Li33
ELISA Ratio (LINGO-Fc [1]): 2.9 ratio
Plateau Ratio (LINGO-Fc [2]): 1.1 ratio

B22: Li33 variant P53L (SEQ ID NO:151) (antibody, V domains shown)
VH: B2 VH with P53L
VL: B2 VL with A94W
notes: unchanged chain from WT Li33
ELISA Ratio (LINGO-Fc [1]): 2.2 ratio
Plateau Ratio (LINGO-Fc [2]): 1.13 ratio

B25: Li33 variant I57M (SEQ ID NO:160) (antibody, V domains shown)
VH: B2 VH with I57M
VL: B2 VL with A94W
notes: unchanged chain from WT Li33
ELISA Ratio (LINGO-Fc [1]): 3.8 ratio
Plateau Ratio (LINGO-Fc [2]): 1.09 ratio

B26: Li33 variant I57P (SEQ ID NO:184) (antibody, V domains shown)
VH: B2 VH with I57P
VL: B2 VL with A94W
notes: unchanged chain from WT Li33
ELISA Ratio (LINGO-Fc [1]): 0.6 ratio
Plateau Ratio (LINGO-Fc [2]): 1.27 ratio

B29: Li33 variant P53G (SEQ ID NO:180) (antibody, V domains shown)
VH: B2 VH with P53G
VL: B2 VL with A94W
notes: unchanged chain from WT Li33
ELISA Ratio (LINGO-Fc [1]): 3.1 ratio
Plateau Ratio (LINGO-Fc [2]): 0.83 ratio

B30: Li33 variant P53S (SEQ ID NO:152) (antibody, V domains shown)
VH: B2 VH with P53S
VL: B2 VL with A94W
notes: unchanged chain from WT Li33
ELISA Ratio (LINGO-Fc [1]): 2.5 ratio
Plateau Ratio (LINGO-Fc [2]): 1.43 ratio

B31: Li33 variant P53W (SEQ ID NO:154) (antibody, V domains shown)
VH: B2 VH with P53W
VL: B2 VL with A94W
notes: unchanged chain from WT Li33
ELISA Ratio (LINGO-Fc [1]): 3.9 ratio
Plateau Ratio (LINGO-Fc [2]): 0.55 ratio

B33: Li33 variant I57F (SEQ ID NO:164) (antibody, V domains shown)
VH: B2 VH with I57F
VL: B2 VL with A94W
notes: unchanged chain from WT Li33
ELISA Ratio (LINGO-Fc [1]): 2 ratio
Plateau Ratio (LINGO-Fc [2]): 0.83 ratio

B34: Li33 variant I57L (SEQ ID NO:163) (antibody, V domains shown)
VH: B2 VH with I57L
VL: B2 VL with A94W
notes: unchanged chain from WT Li33
ELISA Ratio (LINGO-Fc [1]): 0.7 ratio
Plateau Ratio (LINGO-Fc [2]): 1 ratio

B36: Li33 variant I57V (SEQ ID NO:185) (antibody, V domains shown)
VH: B2 VH with I57V
VL: B2 VL with A94W
notes: unchanged chain from WT Li33
ELISA Ratio (LINGO-Fc [1]): 1.4 ratio
Plateau Ratio (LINGO-Fc [2]): 1.13 ratio
